Several values for one entry are separate records, joined by “and”; a condition that tells them apart may be missing. Equal values may be shown once.

The target of experiment [1] is wild type full length human Hsp90β with non-cleavable His6-tag (human). As to the kind of experiment: AUC; sedimentation at 42,000 rpm, 20°C, 16 hours, 7.2 uM Hsp90 in 25 Na-phosphate pH 7.2, 150 mM NaCl, 150 mM KCl, 5 mM DTT, protease inhibitor; absorbance optics; SedFit.
For experiment [2] the target is unchanged. As to the kind of experiment: SEC-MALS; SEC-MALLS on Superdex 200, 0.35 ml/min, 25 mM Na-phosphate pH 7.2, 150 mM NaCl, 5 mM DTT; 10 ul of ~29 g/l loaded; legend: 2.2 uM monomer concentration. Background: SEC sorts molecules by how far they enter the pores of the column.

For orientation: stoichiometry N means a count of units in the complex or per binding partner. Turning to “wild type full length human Hsp90β with non-cleavable His6-tag (natural protein; other documents disagree on this pair)”, the stoichiometry N in experiment [1] was 2 and 4; in experiment [2], 2.
